Experimental data reported in article PMC11681868.
Where no end group is shown, it is not given here. [ ]: non-standard residue; d: D form. pS = N[C@@H](COP(=O)(O)O)C(=O)O

How the values were obtained:
Assay in all cases: ITC; iTC200; 5 μM scFv in the cell, 50 μM peptide in the syringe; samples dialyzed against PBS; triplicate
[1] = target: rabbit antibody C7 scFv (wild type) (rabbit)
[2] = target: rabbit antibody A4 scFv H-S54A (rabbit)
[3] = target: rabbit antibody C7 scFv H-S52A (rabbit)
[4] = target: rabbit antibody A4 scFv (wild type) (rabbit)
Chain of rabbit antibody A4 scFv (wild type) (rabbit) (heavy, as listed by the source, chain 1 of 2): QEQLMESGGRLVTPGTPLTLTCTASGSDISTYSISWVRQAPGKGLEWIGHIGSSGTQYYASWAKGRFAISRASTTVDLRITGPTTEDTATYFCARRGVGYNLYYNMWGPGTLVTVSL
Chain of rabbit antibody A4 scFv (wild type) (rabbit) (light, as listed by the source, chain 2 of 2): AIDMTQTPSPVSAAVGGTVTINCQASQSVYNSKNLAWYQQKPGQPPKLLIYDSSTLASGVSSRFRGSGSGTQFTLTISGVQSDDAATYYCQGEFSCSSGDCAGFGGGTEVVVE

[5] = target: rabbit antibody A4 scFv H-S53A (rabbit)
Chain of rabbit antibody A4 scFv H-S53A (rabbit) (heavy, as listed by the source, chain 1 of 2): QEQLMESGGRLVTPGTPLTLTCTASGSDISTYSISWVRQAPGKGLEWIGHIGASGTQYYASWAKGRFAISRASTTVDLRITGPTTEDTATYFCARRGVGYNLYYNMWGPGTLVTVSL

[6] = target: rabbit antibody C7 scFv H-S54A (rabbit)
Chain of rabbit antibody C7 scFv H-S54A (rabbit) (heavy, as listed by the source, chain 1 of 2): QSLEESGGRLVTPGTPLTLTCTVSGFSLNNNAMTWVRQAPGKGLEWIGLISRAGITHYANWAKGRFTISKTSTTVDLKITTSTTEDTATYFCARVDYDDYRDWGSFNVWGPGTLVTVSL
Chain of rabbit antibody C7 scFv H-S54A (rabbit) (light, as listed by the source, chain 2 of 2): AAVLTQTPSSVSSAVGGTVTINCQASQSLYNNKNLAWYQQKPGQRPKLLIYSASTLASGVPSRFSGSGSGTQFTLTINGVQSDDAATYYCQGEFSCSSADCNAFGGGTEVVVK

[7] = target: rabbit antibody A4 scFv H-T56A (rabbit)
Chain of rabbit antibody A4 scFv H-T56A (rabbit) (heavy, as listed by the source, chain 1 of 2): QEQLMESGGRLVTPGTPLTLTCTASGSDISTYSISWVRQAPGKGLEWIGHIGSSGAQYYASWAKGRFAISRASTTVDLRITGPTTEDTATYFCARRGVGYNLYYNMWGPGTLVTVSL

Chain of rabbit antibody C7 scFv H-S52A (rabbit) (heavy, as listed by the source, chain 1 of 2): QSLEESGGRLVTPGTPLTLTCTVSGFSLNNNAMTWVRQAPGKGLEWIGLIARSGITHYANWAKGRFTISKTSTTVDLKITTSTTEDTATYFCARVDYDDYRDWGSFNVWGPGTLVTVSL
Chain of rabbit antibody A4 scFv H-S54A (rabbit) (heavy, as listed by the source, chain 1 of 2): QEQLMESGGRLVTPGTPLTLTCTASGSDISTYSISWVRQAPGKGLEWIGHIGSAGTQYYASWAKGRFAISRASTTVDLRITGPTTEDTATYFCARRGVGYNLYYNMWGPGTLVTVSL
Chain of rabbit antibody C7 scFv (wild type) (rabbit) (heavy, as listed by the source, chain 1 of 2): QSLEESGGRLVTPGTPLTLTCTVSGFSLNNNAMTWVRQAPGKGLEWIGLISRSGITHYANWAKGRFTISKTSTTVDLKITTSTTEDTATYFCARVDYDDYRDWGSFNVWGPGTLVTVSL

Kd [1]: 26.9 nM | dH [1]: -14.4 kcal/mol | Kd [2]: 6.95 nM | dH [2]: -23.5 kcal/mol | Kd [3]: 664 nM | dH [3]: -11.1 kcal/mol | Kd [4]: 3.34 nM | dH [4]: -24.4 kcal/mol | Kd [5]: 3.55 nM | dH [5]: -24.9 kcal/mol | Kd [6]: 95.3 nM | dH [6]: -13.3 kcal/mol | Kd [7]: 4 nM | dH [7]: -23 kcal/mol
Binder: RPHFPQF[pS]YSAS [phosphorylated Akt peptide]
